Measured values: PMC11748958

Target: human ERG potassium channel (human) (UniProt Q12809)
Sequence of UniProt Q12809 (Q12809 whole entry): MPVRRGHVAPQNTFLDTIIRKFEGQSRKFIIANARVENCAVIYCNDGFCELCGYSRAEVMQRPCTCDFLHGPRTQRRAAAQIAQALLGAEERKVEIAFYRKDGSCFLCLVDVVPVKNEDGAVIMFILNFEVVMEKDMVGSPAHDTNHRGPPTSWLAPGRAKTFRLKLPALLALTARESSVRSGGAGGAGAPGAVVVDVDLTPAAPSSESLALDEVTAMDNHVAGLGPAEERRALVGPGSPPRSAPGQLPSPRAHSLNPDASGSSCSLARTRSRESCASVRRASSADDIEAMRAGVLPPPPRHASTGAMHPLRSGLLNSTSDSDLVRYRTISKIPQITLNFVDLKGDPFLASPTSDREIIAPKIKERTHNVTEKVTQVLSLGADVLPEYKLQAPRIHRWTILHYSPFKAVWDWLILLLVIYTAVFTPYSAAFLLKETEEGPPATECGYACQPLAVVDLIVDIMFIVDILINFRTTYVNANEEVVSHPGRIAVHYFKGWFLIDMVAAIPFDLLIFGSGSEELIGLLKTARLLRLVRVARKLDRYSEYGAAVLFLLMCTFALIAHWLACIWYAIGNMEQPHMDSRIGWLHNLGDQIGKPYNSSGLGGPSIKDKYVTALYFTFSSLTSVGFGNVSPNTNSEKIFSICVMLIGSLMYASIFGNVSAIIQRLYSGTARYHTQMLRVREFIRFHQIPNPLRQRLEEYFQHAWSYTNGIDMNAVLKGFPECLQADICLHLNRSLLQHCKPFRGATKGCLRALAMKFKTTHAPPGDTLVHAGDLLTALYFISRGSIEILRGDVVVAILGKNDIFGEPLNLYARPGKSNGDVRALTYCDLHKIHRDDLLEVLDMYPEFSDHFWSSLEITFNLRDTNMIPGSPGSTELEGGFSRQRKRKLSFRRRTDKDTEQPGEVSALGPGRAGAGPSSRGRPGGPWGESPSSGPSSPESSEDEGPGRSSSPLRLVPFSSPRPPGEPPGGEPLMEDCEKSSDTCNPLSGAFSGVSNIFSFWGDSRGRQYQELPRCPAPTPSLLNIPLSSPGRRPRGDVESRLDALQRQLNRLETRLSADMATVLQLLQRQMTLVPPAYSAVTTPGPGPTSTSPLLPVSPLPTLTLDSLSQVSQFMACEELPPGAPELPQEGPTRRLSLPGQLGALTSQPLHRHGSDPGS

B1: recombinant Phα1β (peptide)
chain: MACIPRGEICTDDCECCGCDNQCYCPPGSSLGIFKCSCAHANKYFCNRKKEKCKKA
  IC50 of inhibition of hERG channel activity, thallium flux (FLIPR Potassium Assay) in HEK293-hERG cells: > 900 pmol
  percent inhibition of hERG channel activity, thallium flux (FLIPR Potassium Assay) in HEK293-hERG cells, Phα1β 56-900 pM for 30 minutes; highest value at 900 pM: 13.6%
